Data from the nanobody polyreactivity screen of Harvey et al. (2022).

Assay: yeast display, Sf9 membrane polyspecificity reagent, FACS + sequencing; frameworks hold sequencing errors
Outline: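 Nanobodies from a synthetic yeast display library (Saccharomyces cerevisiae BJ5465), induced 36–48 hours with galactose, were stained 1 hour at 4 °C with 10% biotinylated, detergent-solubilized Sf9 membrane reagent, enriched on streptavidin microbeads, then FACS-sorted. Anti-HA (expression) and streptavidin (reagent binding) fluorescence set low and high (top ~1%) gates. Polyreactivity labels come from the gate of origin. Genes were colony-PCR amplified, MiSeq 2 × 250 sequenced and filtered by CDR length.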

Row | Sequence | polyreactivity (PSR sort gate)
1 | QVQLVESGGGLVQAGGSLRISCAASGFTFEDNTMGWYRQAPGKERELVAAITWGGVSTYYADSVKGRFTISRDNAKNTVYLQMNSLKPEDTAVYYCARDYDVYTVFLMDYWGQGTQVNVSS | low polyreactivity
2 | QVQLVESGGGLVQAGGSLRLSCAASGFTFHYNAMGWYRQAPGKEREFVAAISGSGDRTYYADSVKGRFTISRDNAKNTVYLQMNSLKPEDTAVYYCATSVRQNYFYSYDYWGQGTQVTVSS | high polyreactivity
3 | QVQLVESGGGLVQAGGSLRLSCAASGFTLLPNAMGWYRQAPGKERELVAAITASGGRTYYADSVKGRFTISRDNAKNTVYLQMNSLKPEDSAVYYCNAGVYYYYHYTRMDYWGQGTQVTVSS | low polyreactivity
4 | QVQLVESGGGLVQAGGSLRLSCAPSGSTFRYNAMGWYRQAPGKERELVAAITFSGDSTSYADSVKGRFTISRDNAKNTVYLQMNSLKPEDTAVYYCAVDTWNGDGSGYSLEFEYWGQGTQVTVSS | low polyreactivity
5 | HVQLVESGGVLVQAGGSLRLSCAATGSIFRNNAMGWYRQAPGKERDLVAAISSSGGSTFYADSVKGRFTISRDNAKNTVYLQMNSQNPEDTAVYYCAARVRSELIKRYDWGQGTQVTVSS | high polyreactivity
6 | QVQLVESGGGLVQAGGSLRLSCAASGITFTYYAMGWYRQAPGKVRELVAGISSGTRTYYADSVKGRFTISRDNAKNTVYLQMNSLKPEDTAVYYCAARTGSRYSRGDYWGHGTQVTVSS | high polyreactivity
7 | QVQLEESGVGLVQAGGSLRLSCAASGSIIHYNAMGWYRKAPGKERELVASISSGGRTYYADSVKGRFTISRDNAKNTVYLQMNSLNQEDTAVYYCAAEYYQTTYVWWTYDYSWGLGTQVTVSS | low polyreactivity
8 | QVQLVESGGGLVQAGGSLRLSCAASGSIFYVNTMGWYRQAPGKEREFVAAISGSGGSTRYADSVKGRFTISRDNAKNTVYLQMNSLKPEDTAVYYCAADRYTYIWYHIYDYWGQGTQVTVSS | low polyreactivity
9 | QVQLVESGGGLVQAGGSLRLSCAASGRIFVSYAMGWYRQAPGKERELVAAINWNGDRTYYADSVKGRFTISRDNAKNTVYLQMNSLKPEDSAVYYCNTDSILLPYDYWGQGTQVTVSS | low polyreactivity
10 | QVQLVESGGGLVQAGGSLRLSCAASGLTFFWNAMGWYRQAPGKERELVAAISYSGGSTSYADSVKGRFTISRDNAKNSVYLQMNSLKPEDTAVYYCAAEYWYGPSKGDYWGQGTQVTVSS | high polyreactivity
11 | QVQLVESGGGLVQAGGSLRLSCAASGLIFPPNVMGWYRQAPGKDRELVAAITSSGSTNYADSVTGRFTISRDNAKNTVYLQMNSLKPEDTAVYYCARDQTWSYQPWYYLSYTQYEYWGQGNQVTVSS | low polyreactivity
12 | QVQLVESGGGLVQAGGSLRLSCAASGSTLTRNTMGCYRQAPAKERELVATNTRSGGSTYYADSVKGRFTISRDNAKNTVYLQMNSLKPEDTAVYYCAVRRQTFRYVYPGMDYWGQGTQVTVSS | high polyreactivity
13 | QVQLVESGGGLVQAGGSLRLSCAASGSILKPYAMRSYRQAPGKERELVAAISGTGGSTYYADSVKGRFTISRDNAKNTVYLQMNSLKPEDTAVYYCNADEFRYAFEYWGQGTQVTVSW | high polyreactivity
14 | QVQLVESGGGLVQAGGSLRLSCAASGSTFGYNAMGWYRQAPGKERELVAAISYSGGSTSYADSVKGRFTISRDNAKNTVYLQMNSLKPEDTAVYYCAADEGTGQASLSSNLYDYWGQGTQVTVSS | low polyreactivity
15 | QVQLVESGGGLVQAGGSLRLSCAASGRIFGSYAMGWYRQAPGKERELVAAISWRGTSTYYADSVKRRFTISRDNAKKTVYLQMNSLKPEDTAVYYCAARGLWPYDYWGQGTQVTVSS | low polyreactivity
16 | QVQLVESGGGLVQAGGSLRLSCAASGRTFHRYAMGWYRQAPGKERELVATISRGGSTNYADSVKGRFTISRDNAQTTVYLQRNSLKTEETAVYYCAREYYGSWDSGGGGYWGQGTQVTVAS | high polyreactivity
17 | QVQLVESGGGLVQAGGSLRLSCAASGITIVNYVMGWYRQAPGKERELVAAISIGGGTYYADSVKGRFTISRDNAKNTVYLQMNSLKPEDTAVYYCNASYGGLSFYIGVYVTGYYYWGQGTQVTVSS | low polyreactivity
18 | QVHLVESGGGLVQAGGSLRLSCAPSGFTFGYNAMGWYRQAPGKERELVAAISYRDGSTYYADSVKGRFTISRDTAKNTVYLQMNSLKPEDTAVYYCAAEVWYPGWGYDYWGQGTQVTVSS | high polyreactivity
19 | QVQLVESGGGLVQSGGSLRLSCAASGGTFVPYAMGWDIQAPGKERELVARISKRGGTTYYADSVKGRFTISRDTAKITVYLQMNSLKPEDTAVSSCAAVLPARGYYWGQGTQVTVSS | high polyreactivity
20 | QVQLVESGGGLVQAGGSLRLSCADSGRTIPFYAMGWYRQAPGKERELVAAISSSAGRTYYADSVKGRFTISRDNAKNTVSLQMNSLKPEDTAVYYCAARLYGRYRYDYWGQGTQVTVSS | low polyreactivity
21 | QVQLVESGGGLVQAGGSLRLSCAASGSIFARYAMGWDRQAPGKERELVAAISSRGGSTYYADSVKGRFTISRDNAKNTVYLQMNSLKPADTAVYYCNKGYLVRQGDYWGQGTQVTVSS | high polyreactivity
22 | QVQLVESGGGLVQAGGSLRLSCAASGRTFVPYDMGWYRQAPGKERELVAAISSGDSTNYTDSVKGRFTISRDNAKNTVYLQMNSLKPEDTAVYYCAADLTYTMDHWGQGTQVTVSS | low polyreactivity

Row | Sequence | polyreactivity (PSR sort gate)
23 | QVQLVESGGGLVQAGGSLRLSCAASGLIFDPNTMGWYRQAPGKERELVAAISSGGDTNYADSVKGRFTISRDNAKNTVYLQMNSQKPEDTAVYYCATDIRFHDPSEYEGVHFEYWGQGTQVTVSS | low polyreactivity
24 | QVQLVESGGGLVQAGGSLRLSCAASGSIFRVYAMGWYRPAPGKERELVASISRRGGSTYYADSVKGRFTISRDNEKNTVYLHMNILKPEDTAVYYCAAEFVIGVHCYDYWGQVTQVTVSS | high polyreactivity
25 | QVQLVESGGGLVQAGGTLRLSCAASGRISTHNAMGWYRQAPGKERELVAAITSGGRTTYADSVKGRFTISRDNAKNTVYLLMNSLKPEDTAVYYCNADTGLGSLDFDKRDYWGQGTQVTVSS | low polyreactivity
26 | QVQLVESGGCLVQAGGSLRLSCAASGYIFGYNAMGWYRQAPGKERELVAAISYSGGSTYYADSVKGRFTISRDNAKNTVYLQMNSLKPVDTAVYYCAAGAKWIYHYYSSLQYGYWGQGTQVTVSS | high polyreactivity
27 | QVQLVESGGGLVQAGGSLRLSCAASGFTFSYYAMGWYREAPGKERELVAAISQSGGSKYYADSVKGRFIISRDNAKNTVYLQMNSLKPEDTAVYYCNRGLRSHQSDDYWGLGTQVTVSS | high polyreactivity
28 | QVQLQESGGGLVQAGGSLRQSYAASGYIFPSLAMGWYRQAPGKEREFVAAIGRGSTNNYEDSVKGRFTISRDNAKNTAYQQMNRLKPEDTAVYYCAAAASPLTRDLYWGQGTQVTVSS | low polyreactivity
29 | QVQLVESGGGLVQAGGSLRLICAASGSTFPTYAMGWYRQAPGKERELVAAIDSSGGNTYYADSVKGRFTISRDNAKNTVYLQMNSLKPEDTEVYYCARESVTYFWYYTPEVDYWGQGTQVTVSS | low polyreactivity
30 | QVQLVESGGGFVQAGGSLRLSCAASGSTFDYNTMGWYRQAPGKERELVAAISESGGSTYYADSVKGRFTISRDNAKNTVYLQMNSLKPEDTAVYYCAADTIGYHYWYDYWGQGTQVTVSS | low polyreactivity
31 | QVQLEESGGRLVQAGGSLRLSCAASGRTFYPYAMGWYRQAPGKERELVAAISYRGGSTYYADSVKGRFTISRDNAKNTVYLQMNSLKPEDTAVYYCAKRGYASGSKWDYGYWGQGTQVTVSS | high polyreactivity
32 | QVQLVESGGGLVQAGGSLRLSCAASGGTFRLYAMGWYRQAPGKERELVAAITGSSGGTYYADSVKGRFTISRDNAKNTVYLQMNSLKPEDTAVYYCAARSSYWGQGTQVTVSS | low polyreactivity
33 | QVQLVESGGGLVQAGGSLRLSCAASGGTFSSYAMGWYRPAPGKERELVADITRRGGSTYYADSVKGRFTISRDNAKNTVYLQMNSLKPEDTAVYYCAKDYFRRGLWGFSIYGYWGQGTQVTVSS | high polyreactivity
34 | QVQLVESGGGLVQAGGSLRLSCAASGRTFPFYAMGWYRQAPGKERELVAAISISGGSTYYADSVKGRFTISRDNAKNTVYLLMNSLKPEDTAVYYCATDGLYLSWQYSWEELYYWGQGTQVTVSS | high polyreactivity
35 | QVQLVESAGGLVQAGGSLRLSCAASGLTFYLYVMGWSRQATGKERELVAAISRRGGTTYYADSVKGRFTISRDNAKNTVYLQMNSLKPEDTAVYYCNKADAVGRDYDYWGQGTQVTVSS | high polyreactivity
36 | QVKLVESGAGLVQAGASLRLSCAASGLIFHQYAMGWYRQAPGKERELVAAITRSGTRTYYADSVKGRFTISRDNEKNTVYLQMNSLKPEDTAVYYCAAADTQGVSMDYWGQGTQVTVSS | high polyreactivity
37 | QVQLVESGGGLVQAGGSLRLSCAASGRTFYRYAMGWYRHAPGKERELVASITRGTSTNYADSVKGRFTISRDNAKNTVYLQMNSLKPEDTAVYYCNRRIFGGQRMYYWGQGTQVTVSS | high polyreactivity
38 | QVQLGESGVGLVQAGGSHRLSCAASGSTSPINAMGWYRQAPGKERELVAVISSSGGRTYYADSVKGRFTISRDNAKNTVYLQMNSLKPEDTAVYYCANRFSRRQPDYDYWGQGTQVTVSS | high polyreactivity
39 | QVQLVESGGGLVQAGGSLRLSCAASGLIFSYNAMGWYRQAHGKETELVATIRRVGSTNYADSVKGRFTISRDNAKNTVYLQMNSLQPDDTAVYYCAAVYVRIGTRYGYWGQGTQVTVSS | high polyreactivity
40 | QVQLGESGGGLVQAGGSLRLSCAASGSIFRSYAMGWYRQAPGKERELVAAISWRGGRTYYADSVKGRFTISRDNAKNTVYLQMNSLKPEDTAVYYCAARNRAQQGTRDHDYWGQGTQVTLSS | high polyreactivity
41 | QVQLVESGGGLVQAGGSLRLSCAASGFIFNAYVMGWYRQAPGKERELVAAITASGGSTYYADSVKGRFTISRDNAKNTVYLQMNSLKPEDTAVYYCAAAHPYDSRFDYWGQGTQVTVSS | high polyreactivity
42 | QVQLVESGGGLVQAGGSLRLSCAASGSTFSTNAMGCYRQAPGKERELVAAISGRGGRTYYADSVKGRFTISRDNAKNTVYLQMTSLKPEDTAVYYCNTDSYLRMDYWGQGTQVTVSS | high polyreactivity
43 | QVQLVESGGGLVEAGGSLRLSCAASGIIFVYNAMGWSRKAPGKERELVADINWRGDGTYYSDSVKGRFTISPDNAKNTVYLQMNSLKPEDTAVYYCNAVRFRPNSHYRPVGYEYWGQGTQVTESS | low polyreactivity
